B1: humanized anti-human IL-1α antibody H3D12.8 (antibody, from a related filing, human IgG1, V domains shown)
VH: EIQLVQSGSELKKPGASVKVSCKASGYTFTNYGMNWVRQAPGQDLERMAWINTYTGESTYADDFKGRFVFSLDTSVSTAYLQISSLKAEDTAVYFCARGIYYYGSSYAMDYWGQGTTVTVSS
VL: DIQMTQSPSSLSASVGDRVTITCRASQDISNCLNWYQQKPGKTPKLLIYYTSRLHSGVPSRFSGSGSGTDYTFTISSLQPEDIATYFCQQGKTLPYAFGQGTKLEIK
B2: humanized anti-human IL-1α antibody H3D12.r16 (antibody, from a related filing, human IgG1, V domains shown)
VH: EVQLVQSGAEVKKPGASVKVSCKASGYTFKYYGMNWVRQAPGQGLERMGWINTYTGQSTYADDFKGRVTFTLDTSTSTAYMELSSLRSEDTAVYYCARDIYYYGSDFAMDYWGQGTTVTVSS
VL: B1 VL with C32M, T43A, H55K, S56P, L94A, A97T
B3: humanized anti-human IL-1α antibody H3D12.16 (antibody, from a related filing, human IgG1, V domains shown)
VH: B1 VH with S9A, L11V, V69T, S71T, V76T, L81M, Q82E, I83L, K87R, A88S
VL: B1 VL
B4: humanized anti-human IL-1α antibody H3D12.r10 (antibody, from a related filing, human IgG1, V domains shown)
VH: B2 VH with V2I, K30A, Y31H, R47W, V68F, D99G, Y103F, D106N, F107Y
VL: B1 VL with C32M, H55R, T93K, L94P, A97T
B5: humanized anti-human IL-1α antibody H3D12.r37 (antibody, from a related filing, human IgG1, V domains shown)
VH: B2 VH with V2I, Q57E, T59R, Y103F, F107Y
VL: B1 VL with C32R, T43A, T51A, H55K, S56P, K92N, L94P, A97T
B6: anti-human IL-1α monoclonal antibody 3D12 (antibody, from a related filing, V domains shown)
VH: QIQLVQSGPELKKPGETVKISCKASGYTFRNYGMNWVKQAPGKDLKRMAWINTYTGESTYADDFKGRFAFSLETSASTAYLQINNLKNEDTATYFCARGIYYYGSSYAMDYWGQGTSVTVSS
VL: IQMTQTTSSLSASLGDRVTISCRASQDISNCLNWYQQKPDGTVKLLIYYTSRLHSGVPSRFSGSGSGTDYSLTISNLEQEDIATYFCQQGKTLPYAFGGGTKLEINR

Residue numbers refer to the chain shown, from its start.

The target in the first assay is T1, recombinant human IL-1α (human) (UniProt P01583).
T1 sequence: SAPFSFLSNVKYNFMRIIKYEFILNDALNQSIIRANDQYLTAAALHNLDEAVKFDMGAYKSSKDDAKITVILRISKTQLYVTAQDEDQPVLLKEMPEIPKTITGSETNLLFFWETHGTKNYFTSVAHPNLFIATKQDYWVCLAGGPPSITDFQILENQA
Put plainly: cell-based or functional assay.
For the molecule B1, the Neutralization Potency (IC50, pM), MRC-5 bioassay (IL-8 production) turned out to be 1950 pM.
For B2, the Neutralization Potency (IC50, pM), MRC-5 bioassay (IL-8 production) was determined as 0.6 pM.
Still for that read-out and setting: with B3 the figure was 1360 pM.
The same measure, in the same setting: with B4 the figure was 0.6 pM.
For the molecule B5, the Neutralization Potency (IC50, pM), MRC-5 bioassay (IL-8 production) was found to be 1.4 pM.
For the molecule B6, the Neutralization Potency (IC50, pM), MRC-5 bioassay (IL-8 production) stood at 1880 pM.

Another assay concerns the target T1, recombinant human IL-1α (human). Briefly: SPR (Biacore), antibody captured, IL-1α in solution.
Regarding B1, the Kd (usually the equilibrium constant for the complex coming apart) is 1.35 nM.
With B2, the Kd stood at 0.031 nM.
Same read-out and setting: with B3 the figure was 2.09 nM; with B4, 0.032 nM; with B5, 0.028 nM.
On to B6, for which the dissociation constant Kd came out at 1.34 nM.

For the origin of these results see patent publication US20100221179A1.
